Source: article PMC9943654, “The recognition mode between hsRBFA and mitoribosome 12S rRNA during mitoribosomal biogenesis”

What was measured:
[1] = target: T1, hsRBFA Nt (Homo sapiens, UniProt Q8N0V3 42-89); experiment: EMSA; complex stays in well; EMSA: 20 mM Tris-HCl pH 8.0, 200 mM NaCl, 37 C 30 min, 200 nM ssRNA or 2 uM dsRNA; FP: same buffer, 40 nM 5'-FAM RNA, temperature not stated; details: protein: recombinant, tags: His6-MBP N-terminal, hairpin
T1 chain: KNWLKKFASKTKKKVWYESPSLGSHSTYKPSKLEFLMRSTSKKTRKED

[2] = target: T2, hsRBFA Nt-KH (Homo sapiens, UniProt Q8N0V3 42-201); experiment: EMSA; EMSA: 20 mM Tris-HCl pH 8.0, 200 mM NaCl, 37 C 30 min, 200 nM ssRNA or 2 uM dsRNA; FP: same buffer, 40 nM 5'-FAM RNA, temperature not stated; details: protein: recombinant, tags: His6-MBP N-terminal
T2 sequence: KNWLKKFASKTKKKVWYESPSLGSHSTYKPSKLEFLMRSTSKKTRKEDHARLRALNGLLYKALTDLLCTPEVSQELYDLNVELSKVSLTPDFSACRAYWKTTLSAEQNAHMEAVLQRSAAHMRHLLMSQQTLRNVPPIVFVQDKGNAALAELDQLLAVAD

[3] = target: T3, hsRBFA KH-like (Homo sapiens, UniProt Q8N0V3 86-201); experiment: as above; details: protein: recombinant, tags: His6-MBP N-terminal
T3 sequence: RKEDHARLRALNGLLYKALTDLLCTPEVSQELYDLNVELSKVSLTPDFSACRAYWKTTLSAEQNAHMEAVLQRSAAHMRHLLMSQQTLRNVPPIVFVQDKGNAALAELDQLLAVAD

B1: h44 (structured_RNA)
RNA: GGCGUCACCCUCUUCGGAGACAAGUCGCC
- binding result ([1]; label: 5'-FAM in FP): binds
- binding result ([2]; label: 5'-FAM in FP, hairpin): binds
- binding result ([3]; label: 5'-FAM in FP, hairpin): no binding

B2: h28 (structured_RNA)
RNA: GGUGGCGGUGCUUCAUUCGUGAAGCGCGUCACC
- binding result [1]: binds
- binding result ([2]; hairpin): binds
- binding result ([3]; hairpin): no binding

B3: ssRNA-3'end (ssRNA)
RNA: GACGAAC
- binding result ([3]; single strand): no binding

B4: GC (structured_RNA)
RNA: CGCCGCGAAGGCGGCG
- binding result ([2]; hairpin): binds

B5: AU (structured_RNA)
RNA: AUAAUAGAAGUAUUAU
- binding result ([2]; hairpin): binds

B6: h45 (structured_RNA)
RNA: UAAGUGUACUGGAAAGUGCACUUG
- binding result [1]: binds
- binding result ([2]; hairpin): binds
- binding result ([3]; hairpin): no binding

B7: DNA (dsDNA)
DNA 1: TTGGTCAG
DNA 2: CTGACCAA
- binding result ([2]; blunt): binds
